Here are results for five molecules from patent EP4803098A1 (Shandong Boan Biotechnology Co., Ltd., dated 2025).

Assay [1] has as its target T1, hGIPR-His protein (human, UniProt P48546 22-138).
T1 chain: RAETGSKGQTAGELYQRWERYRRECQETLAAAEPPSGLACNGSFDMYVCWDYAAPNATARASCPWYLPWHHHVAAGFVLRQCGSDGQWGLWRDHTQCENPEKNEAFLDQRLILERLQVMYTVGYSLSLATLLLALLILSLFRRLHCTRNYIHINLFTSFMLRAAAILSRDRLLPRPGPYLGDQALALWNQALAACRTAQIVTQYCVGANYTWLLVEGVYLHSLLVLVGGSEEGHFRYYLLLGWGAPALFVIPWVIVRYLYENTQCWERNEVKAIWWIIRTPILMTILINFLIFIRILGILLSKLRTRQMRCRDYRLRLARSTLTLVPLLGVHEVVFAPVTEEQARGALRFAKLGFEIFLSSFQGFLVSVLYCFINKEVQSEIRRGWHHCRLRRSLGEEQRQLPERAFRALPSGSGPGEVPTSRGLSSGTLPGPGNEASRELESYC
In words: BLI (Octet), antibody captured on FAB2G sensor, hGIPR-His in solution, 1:1 model. For orientation: In BLI a coated tip is dipped into the sample, and binding shifts an interference pattern.

In assay [2] the target is T2, GIPR on CHOK1-GIPR/GLP-1R cells (human, UniProt P48546 22-466).
T2 construct: whole, on cells; also called CHOK1-hGIPR cells
T2 sequence (looked up): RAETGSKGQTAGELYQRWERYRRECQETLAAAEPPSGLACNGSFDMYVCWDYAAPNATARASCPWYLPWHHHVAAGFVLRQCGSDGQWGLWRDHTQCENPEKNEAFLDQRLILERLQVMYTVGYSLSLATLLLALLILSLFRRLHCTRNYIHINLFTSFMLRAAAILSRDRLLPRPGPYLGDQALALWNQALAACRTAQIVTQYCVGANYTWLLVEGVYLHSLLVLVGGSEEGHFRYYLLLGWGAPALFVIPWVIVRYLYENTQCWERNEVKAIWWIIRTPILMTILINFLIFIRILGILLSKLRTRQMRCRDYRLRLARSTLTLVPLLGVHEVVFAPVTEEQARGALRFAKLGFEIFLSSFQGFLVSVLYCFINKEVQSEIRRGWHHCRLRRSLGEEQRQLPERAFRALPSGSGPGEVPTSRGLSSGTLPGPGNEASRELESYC
The assay can be described thus: flow cytometry on CHOK1-GIPR/GLP-1R cells. On the technique in general: In flow cytometry, cells or beads pass a laser one at a time.

Assay [3] concerns the target T1, hGIPR-His protein. In words: BLI (Octet), antibody captured on FAB2G sensor, hGIPR-His in solution.
In assay [4] the target is T2, GIPR on CHOK1-GIPR/GLP-1R cells. In words: cell-based or functional assay.
The target of a further assay is T3, mGIPR-Fc protein (mouse, UniProt Q0P543 19-134, limits assumed).
T3 construct: also called mouse GIPR-Fc protein; not shown: Fc part
T3 sequence (looked up): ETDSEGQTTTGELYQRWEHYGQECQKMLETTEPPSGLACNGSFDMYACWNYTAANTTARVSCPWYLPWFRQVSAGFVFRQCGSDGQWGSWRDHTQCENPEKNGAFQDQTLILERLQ
The assay can be described thus: ELISA, mGIPR-Fc coated. (In general: ELISA stands for enzyme-linked immunosorbent assay.)

Assay [5] has as its target T2, GIPR on CHOK1-GIPR/GLP-1R cells. The assay can be described thus: cell-based or functional assay. The source holds these as a separate data set.
The target is the same in assay [6]. The assay can be described thus: flow cytometry on CHOK1-GIPR/GLP-1R cells (run with CA360).
Assay [7] has the same target. In words: flow cytometry on CHOK1-GIPR/GLP-1R cells (run with CE947).
Assay [8] shares this target. In words: flow cytometry on CHOK1-GIPR/GLP-1R cells (run with CE560).
Assay [9] shares this target. The assay can be described thus: flow cytometry on CHOK1-GIPR/GLP-1R cells (run with BA191).

Read-outs that look alike come from different tables or passages of the source.

B1: CA360 (antibody, human IgG1, kappa, L234A L235A, V domains shown)
VH: EVQLVQSGAEVKKPGSSVKVSCKASGGTFSGYPINWVRQAPGQGLEWMGRIIPIPGIPNYAQKFQDRVTITADKFANTAYMELSSLRSEDTAVYYCARDPLGPYVFDIWGQGTMVTVSS
VL: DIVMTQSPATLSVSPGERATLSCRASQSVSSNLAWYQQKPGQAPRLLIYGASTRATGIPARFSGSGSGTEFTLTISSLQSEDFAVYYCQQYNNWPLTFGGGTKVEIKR
notes: also called GIPR antibody CA360
Usually Kd stands for the constant that tells how readily two partners part at equilibrium. As usually defined, the EC50 is the concentration needed to bring the measured effect to its halfway point. Read a high EC50 as a need for much substance. Molecule B1 had an equilibrium dissociation constant (Kd) with hGIPR-His protein [1] of 3.07 nM. For the same molecule, in assay [2], the midpoint of the response, the EC50, lay at 0.328 µg/mL and the “Maximum binding value (RFU)” value was found to be 281000 RFU. This molecule yielded a Response in the assay with hGIPR-His protein [3] of 0.246. For the same molecule, the “IC50 (µg/mL), cAMP content” value in assay [4] amounted to 0.2 µg/mL.

B2: BA191 (antibody, human IgG1, kappa, L234A L235A, V domains shown)
VH: EVQLVQSGAEVKKPGSSVKVSCKASGGTFSTFSSYAISWVRQAPGQGLEWMGRIIPILGIGNNAQKFQGRVTITADKSTSTAYMELSSLRSEDTAVYYCAREKDWGHFDYWGQGTLVTVSS
VL: DIQMTQSPSSLSASVGDRVTITCRASQGISNYLAWFQQKPGKAPKSLIYAASSLQSGVPSKFSGSGSGTDFTLTISSLQPEDFATYYCQQYNSYPITFGQGTRLEIKR
notes: also called GIPR antibody BA191
In the assay with hGIPR-His protein [1], B2 showed a Kd of 4.28 nM. Besides, in [2], it took 0.091 µg/mL to reach a half-maximal effect (EC50) and the “Maximum binding value (RFU)” value came to 17600 RFU. In the assay with hGIPR-His protein [3], this molecule showed a Response of 0.246. In the assay with mGIPR-Fc protein, the binding result was “no binding (tested: starting from 0.2 µg/mL)”. The “IC50 (µg/mL), cAMP content” value in [5] is 0.04 µg/mL.

B3: CE947 (antibody, human IgG1, kappa, L234A L235A, V domains shown)
VH: EVQLVQSGAEVKKPGSSVKVSCKASGGTFNNYAISWVRQAPGQGLEWMGRIIPFLDIASNAQKFQGKVTITADKSTSTAYMELSSLRSEDTAVYYCAREVDWGWFDSWGQGTLVTVSS
VL: DIQMTQSPSSLSASVGDRVTITCRASQGISNYLAWFQQKPGKAPKSLIYAASSLQSGVPSRFSGSGSGTDFTLTISNLQPEDFATYYCLQYYDYPLTFGGGTKLEIKR
notes: also called GIPR antibody CE947
In the case of B3, the Kd with hGIPR-His protein [1] is 1.13 nM. In assay [2], the EC50 came to 0.131 µg/mL and the “Maximum binding value (RFU)” value was 311000 RFU. In the assay with hGIPR-His protein [3], this molecule came in with a Response of 0.19. For the same molecule, the binding result with mGIPR-Fc protein was “no binding (tested: starting from 0.2 µg/mL)”. Further, the “IC50 (µg/mL), cAMP content” value in assay [5] turned out to be 0.05 µg/mL.

B4: CE560 (antibody, human IgG1, kappa, L234A L235A, V domains shown)
VH: EVQLVQSGAEVKKPGSSVKVSCKASGGTFNNYAISWVRQAPGQGLEWMGRIIPFLDIASYAQKFQGKVTITADKSTSTAYMELSSLRSEDTAVYYCAREVDWGWFDSWGQGTLVTVSS
VL: IQMTQSPSSLSASVGDRVTITCRASQGISSYLAWYQQKPGKAPKLLIYAASTLQSGVPSRFSGSGSGTDFTLTISSLQPEDFATYYCQQLNSYPLTFGGGTKVEIKR
notes: also called GIPR antibody CE560
B4 showed a Kd with hGIPR-His protein [1] of 2.63 nM. Moreover, in assay [2], the EC50 came to 0.206 µg/mL and the “Maximum binding value (RFU)” value came out at 492000 RFU. In addition, the Response in the assay with hGIPR-His protein [3] was determined as 0.222. The binding result in the assay with mGIPR-Fc protein is on record as “no binding (tested: starting from 0.2 µg/mL)”. Further, the “IC50 (µg/mL), cAMP content” value in [4] was determined as 0.14 µg/mL.

B5: 2G10 (antibody, V domains shown)
VH: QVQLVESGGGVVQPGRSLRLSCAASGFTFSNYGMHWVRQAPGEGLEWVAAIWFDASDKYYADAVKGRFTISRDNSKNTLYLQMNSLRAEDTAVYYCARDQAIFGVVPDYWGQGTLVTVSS
VL: EIVMTQSPATLSVSPGERATLSCRASQSVSSNLAWYQQKPGQAPRLLIYGAATRATGIPARVSGSGSGTEFTLTISSLQSEDFAVYYCQQYNNWPLTFGGGTKVEIKR
notes: also called control group 2G10
Consider B5, for which the concentration giving a half-maximal response (EC50) in [6] is 0.213 µg/mL; in assay [7], 0.213 µg/mL; in [8], 0.263 µg/mL; in [9], 0.151 µg/mL. Besides, the dissociation constant Kd in the assay with hGIPR-His protein [1] is 12.6 nM. Besides, the Response in the assay with hGIPR-His protein [3] worked out at 0.142. In addition, the “IC50 (µg/mL), cAMP content” value stood at 0.3 µg/mL in assay [5] and 0.21 µg/mL in assay [4].
